We go through 2 molecules from patent publication US20100240872A1 (FORERUNNER PHARMA RESEARCH, published 2010).

In assay [1] the target is T1, Muc17ct_mIgG2aFc (soluble human Muc17ct / mouse IgG2a Fc fusion protein) (human). Nature of the assay: ELISA screening of hybridoma supernatant on immobilized Muc17ct_mIgG2aFc. For orientation: ELISA stands for enzyme-linked immunosorbent assay.
Assay [2] concerns the target T2, GST_Muc17ct_del2 (4244Ser-4390Leu) (human, UniProt Q685J3 4244-4390).
T2 construct: not shown: GST encoded by vector pGEX4T-3 (Takara Bio)
Nature of the assay: ELISA, GST fusion immobilized at 1 µg/mL.

For assay [3], the target named is T3, GST_Muc17ct_del3 (4115Thr-4243Gly) (human, UniProt Q685J3 4115-4243).
T3 construct: not shown: GST encoded by vector pGEX4T-3 (Takara Bio)
Description: ELISA, GST fusion immobilized at 1 µg/mL.

The target in assay [4] is Mucin 17 (Muc17) on AsPc1 pancreatic cancer cells (human, UniProt Q685J3 26-4493). Description: flow cytometry on AsPc1 cells, FITC anti-human IgG detection.
Description: Binding of the antibodies to a pancreatic cancer cell line AsPc1 was evaluated by flow cytometry. The cells were suspended in FACS buffer (1% FBS/PBS) at 5×10⁵ cells/mL and dispensed into Multiscreen-HV Filter Plates (Millipore), and the supernatant was removed by centrifugation. Anti-Muc17 antibody diluted to a suitable concentration was added and reacted for 30 minutes on ice. The cells were washed once with FACS buffer. FITC-labeled anti-human IgG antibody was added, and reacted for 30 minutes on ice. Then the supernatant was removed by centrifugation, the cell were suspended in 100 μL FACS buffer and applied to flow cytometry. Flow cytometry was run on FACS Calibur (Becton, Dickinson and Company). The viable cell population was gated with a forward scatter and side scatter histogram.
The target in assay [5] is T1, Muc17ct_mIgG2aFc (soluble human Muc17ct …). Description: ELISA, Muc17ct_mIgG2aFc coated at 1 µg/mL, anti-human kappa chain detection.
Description: Muc17ct_mIgG2aFc protein was diluted with coating buffer (0.1 mol/L NaHCO₃ (pH 9.6), 0.02% (w/v) NaN₃) to give 1 μg/mL of Muc17ct_mIgG2aFc protein, and added to an immunoplate for overnight at 4° C. for coating. The plate was blocked with dilution buffer (50 mM Tris-HCl (pH 8.1), 1 mM MgCl₂, 150 mM NaCl, 0.05% (v/v) Tween20, 0.02% (w/v) NaN₃, 1% (w/v) BSA); then the anti-Muc17 antibody was added for 1 hour at room temperature. After washing with rinse buffer (0.05% (v/v) Tween20, PBS), an alkali phosphatase-labeled anti-human κ chain antibody (Sigma, CAT#A3813) was added for 1 hour at room temperature. After washing with rinse buffer, SIGMA104 (Sigma) diluted at 1 mg/mL in the substrate buffer (50 mM NaHCO₃ (pH 9.8), 10 mM MgCl₂) was added. After color development for 1 hour at room temperature, the absorbance (405 nm, reference 655 nm) was measured using a Benchmark Plus (BIO-RAD Laboratories, Inc.).

T1 sequence (chain, as listed by the source limits assumed): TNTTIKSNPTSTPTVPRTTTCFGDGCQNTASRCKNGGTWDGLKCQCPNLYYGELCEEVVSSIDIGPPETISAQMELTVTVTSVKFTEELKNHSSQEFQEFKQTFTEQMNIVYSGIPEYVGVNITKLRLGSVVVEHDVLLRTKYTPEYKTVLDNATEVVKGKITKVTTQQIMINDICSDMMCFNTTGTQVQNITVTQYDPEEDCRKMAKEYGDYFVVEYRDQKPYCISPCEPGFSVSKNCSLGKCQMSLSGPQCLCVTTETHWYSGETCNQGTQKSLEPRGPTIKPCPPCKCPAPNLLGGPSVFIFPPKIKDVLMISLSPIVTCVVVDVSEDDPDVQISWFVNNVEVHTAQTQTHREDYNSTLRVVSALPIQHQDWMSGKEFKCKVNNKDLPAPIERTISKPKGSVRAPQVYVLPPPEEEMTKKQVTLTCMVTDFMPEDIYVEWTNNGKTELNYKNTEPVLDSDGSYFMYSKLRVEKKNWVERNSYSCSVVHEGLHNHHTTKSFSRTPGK

B1: MQ155 (antibody, IgG1, V domains shown)
VH: QVQLQQPGAELVRPGASVKLSCKASGYTFTTYWMNWVKQRPEQGLEWIGRIDPYDSETHYNQKFKDKAILTVDKSSSTAYMQLSSLTSEDSAVYYCARGPYYGTNPWFPYWGQGTLVTVSS
VL: DVQITQSPSYLAASPGETITINCRASKSISKYLAWYQEKPGKTNKLLIYSGSTLQSGIPSRFSGSGSGTDFTLTISSLEPEDFAMYYCQQHHEYPYTFGGGTKLEIK
notes: Mouse monoclonal from hybridoma, IgG1 kappa; also called anti-Muc17 antibody MQ155
For the molecule B1, the figures for the binding result in assay [1], in assay [2] and in assay [3] were “binds”, “no binding (tested: 3 µg/mL)” and “no binding (tested: 3 µg/mL)”, respectively.

B2: chi.MQ155 (anti-Muc17 mouse-human chimeric antibody MQ155) (antibody, human IgG1, kappa, V domains shown)
VH: QVQLQQPGAELVRPGASVKLSCKASGYTFTTYWMNWVKQRPEQGLEWIGRIDPYDSETHYNQKFKDKAILTVDKSSSTAYMQLSSLTSEDSAVYYCARGPYYGTNPWFPYWGQGTLVTVSS
VL: DVQITQSPSYLAASPGETITINCRASKSISKYLAWYQEKPGKTNKLLIYSGSTLQSGIPSRFSGSGSGTDFTLTISSLEPEDFAMYYCQQHHEYPYTFGGGTKLEIKR
notes: Human IgG1 / kappa constant regions; also called chi.MQ155(DG); chi.MQ155(FTKO)
For the molecule B2, the binding result in assay [4] and in assay [5] was “binds” each time.
